This data set can be described thus: soluble on expression in E. coli; label from the status in PepcDB or PDB records.
For “MKIKLEHGAGGELMEELIRDVILKNLTLNSAGGIGLEALDDGATIPFEGKHLVFTIDGHTVRPLFFPGGDIGRLAVSGTVNDLAVMGAKPLALASSLIIGEGFDSDKLEEILKSMNRTAKEVPVPIITGDTKVVEDNIEIFVITAGIGIAEKPISDAGAKVGDLVLVNGTIGDHGIALMSHREGISFETELKSDVAPIWDVVKTVADAIGWENIHAMKDPTRGGLSNALNEMARKADVGILVRESDIPIRPEVKAAGDMLGISPYDVANEGKVIMVVDREYAEDALEAMRKTEKGKDAAIIGEIIKDYPGKVILETGIGGRRFLEPPIGDPVPRVC”, the “soluble on expression in E. coli” value was “soluble”.
“MKIMAICGSGLGSSFMVEMNIKKVLKKLNIDAEVEHSDLSSATPGAADLFVMAKDIAASASVPESQLVVINNIIDINELETQLRAWFAKQ”: the “soluble on expression in E. coli” value was “not soluble”.
Turning to “MKINIRDSTMVRPATETPITNLWNSNVDLVIPRFHTPSVYFYRPTGASNFFDPQVMKEALSKALVPFYPMAGRLKRDDDGRIEIDCNGAGVLFVVADTPSVIDDFGDFAPTLNLRQLIPEVDHSAGIHSFPLLVLQVTFFKCGGASLGVGMQHHAADGFSGLHFINTWSDMARGLDLTIPPFIDRTLLRARDPPQPAFHHVEYQPAPSMKIPLDPSKSGPENTTVSIFKLTRDQLVALKAKSKEDGNTVSYSSYEMLAGHVWRSVGKARGLPNDQETKLYIATDGRSRLRPQLPPGYFGNVIFTATPLAVAGDLLSKPTWYAAGQIHDFLVRMDDNYLRSALDYLEMQPDLSALVRGAHTYKCPNLGITSWVRLPIYDADFGWGRPIFMGPGGIPYEGLSFVLPSPTNDGSLSVAIALQSEHMKLFEKFLFEI”, the “soluble on expression in E. coli” value is “soluble”.
The value for “MKINYQELANNIKLWAKELGFQKVGICDVDLSQHEAALEQWLEAGYHGSMDWMARHGVMRARPDELHPGTIRVISARMDYLPPKAGFASNLKDPNQAYISRYALGRDYHKLIRNQLKKLGQKIEEEVEQLGYRPFVDSAPILERPLAEKAGLGWTGKHSLLLDKNAGSWFFLGELLVDIPLPVDTPVENQCGKCTACISSCPTNAILENGVIDARRCISYLTIENSGIIPEEFRSLMGNRIYGCDDCQLVCPWNREAEITQQADFHRRSSLGNSDLISLFSWDESTFLKNMEGSAIRRIGHIQWLRNLSIAMGNAPHSEAIISALQDRLGLDENLDIHIQWAIKQQSLVITSNRKEQRLIRIIEKGLPRDA” was “not soluble”; that for “MKIQLHKWPKSVIDRLDLVFLDAPFPCQGKSDVEGIFDPPYYEWFQFNKEFTEYTNFEKCLEYLEDRMIKLGPFDGLIGFSQGAILSGGLPGLQAKGIAFQKVPKIKFVIIIGGAKLKSAKLAENAYSSSLETLSLHFLGETDFLKPYGTQLIESYKNPVVVHHPKGHTVPRLDEKSLEKVTAFIDTLEHLVMEEDKNGEENTSKPTK” was “soluble”; that for “MKIRALLLALGMATVLTGCQNMDSNGLLSSGAEAFQAYTLSDAQVKALSDQSCQELDSKAKIAPASSEYTKRLAKIAAALGDNINGQPVNYKVYETKDVNAFAMANGCIRVYSGLMDMMTDNEVEAVIGHEMGHVALGHVKKGMQVALGTNAVRVAAASAGGVVGSLSQSQLGDLGEKLVNSQFSQRQESEADDYSYDLLRKRGISPAGLATSFEKLAKLEAGRQSSMFDDHPASAARAQHVRDRMSADGIKLEHHHHHH” was “soluble”.
Turning to “MKISLVTVTFNSAKTLCDTIHSVLSQSYTNIEYIIVDGLSNDETVTLIKEYEPLFQGRLKWISEKDKGLYDAMNKGIRMSTGDIVGIINSDDFYHRGDVLEKVAESFEAGETEAIYGDVRFVNPDNLDRTVRYYSSKRFVPSLFRFGFMPAHPTFFTYRKYFDQFGYYKTNYKIAADYELLVRFLYVHRLKSKYLPLDFMKMRTGGASTASIKSNILLNKEIVRACKENGIWTCYPLLLLKYLVKVFELIFIKKLEHHHHHH”, the “soluble on expression in E. coli” value is reported as “soluble”.
The value for “MKISTKGRYGLTIMIELAKKYGDRPISLRSIAKANNLSEHYLEQLVTPLRNAGLVKSIRGAYGGYVLAEHPAKITAGDILRVLEGPLTPVEELEEEEPAKRELWIRIRDAVEEVLDSTTLEDLAKYSDGDEGAYMFYI” was “not soluble”.
The value for “MKKFDVAIVGGGLAGLTASIYLAKAGRKVIVLEKSSRFGGRGMTINKNGICMNLGAHALYRGGAAFLTFNELGMNLPGGIPSTKAHGIWKGDIFTIPTDFRSILSTPLLSWSAKVQFSRLMILLGNLDVGEVPKMSLTTWAEHEIKDPMVRNIFYALCRTTTYTFAPTIQLASSVLKQIQLSIKEGVFYVDGGWETIITKLRDIANHVGVQFLSKKHVLEIEHYEDKQRIYCFDDEVFEVGTVIVTTPPKEACNIIKGAEGTSLQRWSEQSIPVTVTALDIGLRRLPNPTHQFALGLDQPIFFTNQSRAAKLSDDGSIAVSLIKYQNPALEMKHIHEDKGQLESTMDLLHPNWKREVVAQQYLPTIKVVYDFPHINRVETPGPNIPEMPGVYVAGDWAGHDEILADAAVASGKRAALHILKQLESEAVHHGNGAIILEHHHHHH” was “not soluble”; that for “MKKIAIIGGGIIGMTLANYLDPQKFDITVYDEGLGQATKASAGIISPWLSKRRNKKWYQLAREGAALFPKLVKDFQLTEDIYRQSGTVILRPAAALADLAHLAEERKQTAPEIGEITMLSAVQTAKFLPLLKETPSLFISGGGRLDGPAYLNHLQKRAEAKGVTFCSQRAHFRQLNQGWEIVTNSEKKSVDFLALTPGPHLKELLTTLNLSVDIRPQKGQLLVFETPFTNSQQWPVAMLDGEADLIPFNQGKILLGATHENEQAWDLEETVSAFQQLTSGTAPFLKEAEQLFKQPMHYRVGTRAYTSDFAPFFGPLPEMPHLVVASGLGSSGLTTGPFIGYQLAEYFNTGAFKGELYQKPLSQYVKNNPSL” was “not soluble”; that for “MKKIAIIGGGIIGMTLANYLDPQKFDITVYDEGLGQATKASAGIISPWLSKRRNKKWYQLAREGAALFPKLVKDFQLTEDIYRQSGTVILRPAAALADLAHLAEERKQTAPEIGEITMLSAVQTAKFLPLLKETPSLFISGGGRLDGPAYLNHLQKRAEAKGVTFCSQRAHFRQLNQGWEIVTNSEKKSVDFLALTPGPHLKELLTTLNLSVDIRPQKGQLLVFETPFTNSQQWPVAMLDGEADLIPFNQGKILLGATHENEQAWDLEETVSAFQQLTSGTAPFLKEAEQLFKQPMHYRVGTRAYTSDFAPFFGPLPEMPHLVVASGLGSSGLTTGPFIGYQLAEYFNTGAFKGELYQKPLSQYVKNNPSLLEHHHHHH” was “soluble”.
In the case of “MKKIEVDLVRTKVYNLLKEMILNHELKLGEKLNVRELSEKLGISFTPVRDALLQLATEGLVKVVPRVGFFVTDVDEKFIRETIETRIMMEVFCLENYFDKIAGSEELLEIKGEIDDVEKSAKREIFDDSDERLHKLFIRASGNELIISLYEKIWDRIDLVRHLNERYVVSNREHKELIERIISGDKEGAIEKLKEHLKNVEAETIKNLYTYERS”, the “soluble on expression in E. coli” value was “soluble”.
Regarding “MKKILFDVDGVFLSEERCFDVSALTVYELLMDKCYLGLHSHIDWETLTDNDIQDIRNRIFQKDKILNKLKSLGLNSNWDMLFIVFSIHLIDILKKLSHDEIEAFMYQDEPVELKLQNISTNLADCFNLNEQLPLQFLDNVKVGKNNIYAALEEFATTELHVSDATLFSLKGALWTLAQEVYQEWYLGSKLYEDVEKKIARTTFKTGYIYQEIILRPVDEVKVLLNDLKGAGFELGIATGRPYTETVVPFENLGLLPYFEADFIATASDVLEAENMYPQARPLGKPNPFSYIAALYGNNRDKYESYINKQDNIVNKDDVFIVGDSLADLLSAQKIGATFIGTLTGLKGKDAAGELEAHHADYVINHLGELRGVLDNLLEHHHHHH”, the “soluble on expression in E. coli” value was “soluble”.
In the case of “MKKILILLTLCAFAFGASECDRKIDRINKEISFSKAHNDTARTLSLELALKQVQNDCAKDPMFYDKKLEAKKLKEQEVEKIEKELDALKEQKDYMSKAEYKAKKEALKEQKEKIKKLEHHHHHH”, the “soluble on expression in E. coli” value is given as “not soluble”.
On to “MKKINKGKSLSRFQLVSTLSVLGAMGLAGNVHAAEAFAADSPWMTGDWNGKRTELLDKGYDFSLEYVSEMASNLKGGSNDDTTGRYSDQFALGMKVDLQKVLGWQDAEFKLAITERSGRNISNDRIGDPRAGTLSSSQEVWGRGQTWRLTQMWVKQKYFDGALDVKAGRFGPGEDFNSFPCDFQNLSFCGSQVGNYVNTWYNWPISQWALRVKYNITPEVYAQVGVYEQNPSNLETGNGFKLSGSGTKGMILPVELVWTPTVNSLPGEYRVGYYKSTPNADDVYEDVNGQPQAATGAAFKSHDSKHGWWVVAQQQLTSHNGDASRGLSIFANATVHDKETNFVDNYQQIGLTYKGPFNSRPKDDIGVGIARIHVNDDVQDRVRLANQISGINDFDNPGYLPVQSTEYNSEIYYGFHVTNWLTVRPNLQFIKHPGGVDQVDDAIVAGIKIQSKF”, for which the “soluble on expression in E. coli” value was “not soluble”.
For “MKKKGKFLLFTMDEFDQWLLETRFSRSVKLVQNHHTYLPGYVQFTGSNHFGLLEGMEHFHMAERGFSEIAQNLTSFPDGTVAVCRSIDKVPCGIKGANQEGICLENLGNFDAGGDTMTPAHRDAIVKINALLCREFNLTPNTDSIVYHHWYDLNSGKRTGGSGTTKTCPGTAFFGGNSMDAAAATFIPLVAQTLAQLTGGTAPSAPVPLKSGEVVASSLNVRAGRGTEFPVVKGLKRGVRVNVFETADGWVRIHPTEQQWVAERYLRYAAAALEHHHHHH”, the “soluble on expression in E. coli” value is recorded as “soluble”.
The value for “MKKKILKVATALTIMGGVAFSAEGATAKAELAAKPQQASQAIFKDVPAGHWSYEAIQTLAEQEIMLGYGNGVFGFGHNVTREQVAALIYRALDLDEEFGEDEELESPYNDIVDDNSTMFPFEVLAVTELGIFTGDEKGNFRPKDTLTRAEMAQVLTRAFGLQVQGLAGFKDVPKGHWAENAINAVGSNGISVGDGNGNFAPNMKVTREQYAQFLFRAL” was “not soluble”; that for “MKKKSNLTLFMKQLIRSLKEEERFSTAHIYQSTLNAFMLFCKTDAIRFNQMERSRLKQFENHLRNKGCTWNTVSTYMRTLRSIYNKAVDDGLAEEKPRLFRHVYTGVKANTKRALDAKDMSKLLSASLPRPLPQSMKESRAWITLMFLLRGMPFVDLAHLRKTDLQDSVISYRRHKTGALLTVEIPPAAMNLIKRYQNTDSASPYLLPILSGNRKSEEEYAEYQHALRKLNYDLKQLAVYCGIKLNVSSYTSRHTWATLAKYCHFSEQLICDALGHSSTKVTETYLKSFKNDELDRANKVIINHINISI” was “not soluble”.
As to “MKKLLLPLVLAGVLLATLLVSQSSSSPSLRVAYVDVEKATESYYKWQDLNEKYKRDYSFYQNKLKEMEDELKKMQEEGRSQEEIQAKQKEILSKKAEYENLLKTEYQQKIQEVMKEVVSKIQEYASVMGYDLVIAKQMVLYGKPSYDITDQVIAYINQK”, the “soluble on expression in E. coli” value is given as “not soluble”.
Regarding “MKKLVHLSDFHYDGLRLSEEMLAEAIAVSNQVQPDLVLLTGDYVTTTPQPIHQLAKRLQKLQSHAGIYAILGNHDLYQKNSKTEITQALTKAGIQVLWNEIAYPLGEELPIVGIVDYYYREFNPQLLFNQLEPTTPRIVLCHNPDTAAMLQGWRVDLQLSGHTHGGLEHHHHHH”, the “soluble on expression in E. coli” value is recorded as “not soluble”.
Take “MKKMHVESEFAPLRSVVLAQSQFCLPDKFDEADTTFLTEENARLTQNNEGRDLADFAPEQQVRWEKEKEVMQGVLESYGVEVFRPRLLTTYEKEHGKELGVGYSNFFSRDPFFTIGNLLIEGNLRFQHRRQEILPIRPIIQQWTQEAEGYYFAAPQPDISEGALSEAGPFIEGGDVLVLGKTIFVGYSGLASNLAGIQWLANMIGHFGYEVVPVRLHPHILHLDCALSLLREGLMIVCEEAFLDGLPAQLANWEKIHVTLQEAAYLVTNGLPLNEETYITDQSFTTLIPQIEAKGIKVEAIDYHVSRMLGGSFRCTTQALIRE”: the “soluble on expression in E. coli” value is “not soluble”.
